± gives the uncertainty stated by the source.
Assay: self-splicing fitness, log relative to wild type (ln ratio); higher = more splicing; Tetrahymena group I intron in knt gene, E. coli kanamycin selection, DiMSum; sequences stand for … in CUCUCU…GGAGGGAAAAGUUAUCAGGCAUGCACCUGGUAGCUAGUCUUUAAACCAAUAGAUUGCAUCGGUUUAAAAGGCAAGACCGUCAAAUUGCGGGAAAGGGGUCAACAGCCGUUCAGUACCAAGUCUCAGGGGAAACUUUGAGAUGGCCUUGCAAAGGGUAUGGUAAUAAGCUGACGGACAUGGUCCUAACCACGCAGCCAAGUCCUAAGUCAACAGAUCUUCUGUUGAUAUGGAUGCAGUUCACAGACUAAAUGUCGGUCGGGGAAGAUGUAUUCUUCUCAUAAGAUAUAGUCGGACCUCUCCUUAAUGGGAGCUAGCGGAUGAAGUGAUGCAACACUGGAGCCGCUGGGAACUAAUUUGUAUGCGAAAGUAUAUUGAUUAGUUUUGGAGUACUCGUGGUCG
Method in brief: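 A randomised library covering all eight P1ex-region intron nucleotides was built with the intron in the knt kanamycin-resistance gene on pET-22b(+) and held in E. coli BL21(DE3). Cells were grown overnight at 37°C or 30°C on LB agar, with or without 25 μg/mL kanamycin, plus 100 μg/mL carbenicillin, 50 μM IPTG and 0.2% rhamnose, and pooled colonies were amplicon-sequenced on an Illumina HiSeq 2500. DiMSum fitness is the error-weighted combination of wild-type-normalised replicate fold changes, kanamycin versus none.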

Sequence | self-splicing fitness (ln) (30 °C) | self-splicing fitness (ln) (37 °C)
GCUUAGCAAUAUUACGCAGA | -2.62 ± 0.22 | -3.24 ± 0.43
GCUUAGCAAUAUUACGCGAU | -3.45 ± 0.34 | -1.69 ± 0.29
GCUUAGCAAUAUUACGCGCA | -1.37 ± 0.16 | 0.00629 ± 0.17
GCUUAGCAAUAUUACGCGGA | -1.32 ± 0.071 | -0.345 ± 0.071
GCUUAGCAAUAUUACGCUCA | -1.34 ± 0.23 | -0.203 ± 0.22
GCUUAGCAAUAUUACGCUGG | – | -2.13 ± 0.3
GCUUAGCAAUAUUACGGCUC | -0.359 ± 0.098 | 0.0516 ± 0.12
GCUUAGCAAUAUUACGGGAA | -0.679 ± 0.12 | 0.196 ± 0.11
GCUUAGCAAUAUUACGGGCA | -2.24 ± 0.27 | -0.778 ± 0.19
GCUUAGCAAUAUUACGGUGA | -1.46 ± 0.092 | -1.75 ± 0.1
GCUUAGCAAUAUUACGUAAA | -0.47 ± 0.084 | 0.317 ± 0.1
GCUUAGCAAUAUUACGUCCG | -1.68 ± 0.19 | -1.43 ± 0.24
GCUUAGCAAUAUUACGUGAC | -1.54 ± 0.09 | -1.08 ± 0.13
GCUUAGCAAUAUUACGUGUC | -1.23 ± 0.14 | -0.348 ± 0.14
GCUUAGCAAUAUUACGUUGU | -1.5 ± 0.066 | -0.844 ± 0.093
GGAAAGCAAUAUUACGACGG | -4.1 ± 0.39 | -2.12 ± 0.4
GGAAAGCAAUAUUACGACUU | -0.349 ± 0.1 | -0.0565 ± 0.11
GGAAAGCAAUAUUACGAGAG | -4.25 ± 0.26 | -0.533 ± 0.1
GGAAAGCAAUAUUACGAGGU | -3.65 ± 0.17 | -2.87 ± 0.25
GGAAAGCAAUAUUACGAUAC | 0.424 ± 0.17 | -0.511 ± 0.35
GGAAAGCAAUAUUACGAUCC | -3.2 ± 0.39 | –
GGAAAGCAAUAUUACGAUCG | -0.227 ± 0.084 | -0.145 ± 0.12
GGAAAGCAAUAUUACGAUGU | -1.69 ± 0.094 | -0.262 ± 0.13
GGAAAGCAAUAUUACGCACA | -0.416 ± 0.091 | 0.0226 ± 0.14
GGAAAGCAAUAUUACGCCGU | -1.5 ± 0.26 | 0.351 ± 0.28

Sequence | self-splicing fitness (ln) (30 °C) | self-splicing fitness (ln) (37 °C)
GGAAAGCAAUAUUACGCGCC | -3.03 ± 0.49 | -2.17 ± 0.42
GGAAAGCAAUAUUACGCGGG | -2.64 ± 0.18 | -1.5 ± 0.18
GGAAAGCAAUAUUACGCGUC | -3.58 ± 0.22 | -2.89 ± 0.23
GGAAAGCAAUAUUACGCUCG | -0.352 ± 0.15 | 0.329 ± 0.17
GGAAAGCAAUAUUACGGAAA | -2.04 ± 0.22 | -1.25 ± 0.24
GGAAAGCAAUAUUACGGAAG | -4.32 ± 0.22 | -1.93 ± 0.15
GGAAAGCAAUAUUACGGCCU | -1.71 ± 0.15 | -0.809 ± 0.21
GGAAAGCAAUAUUACGGCUG | -0.471 ± 0.12 | -0.348 ± 0.17
GGAAAGCAAUAUUACGGGCC | -2.41 ± 0.23 | -2.16 ± 0.32
GGAAAGCAAUAUUACGGGGU | -3.1 ± 0.22 | -3 ± 0.28
GGAAAGCAAUAUUACGGUAA | -1.62 ± 0.15 | -0.544 ± 0.12
GGAAAGCAAUAUUACGGUCA | -0.418 ± 0.09 | 0.154 ± 0.1
GGAAAGCAAUAUUACGUGUG | -2.41 ± 0.087 | -0.505 ± 0.078
GGAAAGCAAUAUUACGUUGA | -2.31 ± 0.081 | -1.27 ± 0.084
GGAAAGCAAUAUUACGUUUA | -1.89 ± 0.11 | -1.16 ± 0.11
GGACAGCAAUAUUACGAAUA | -1.69 ± 0.13 | -0.937 ± 0.13
GGACAGCAAUAUUACGACUA | 0.148 ± 0.12 | -0.612 ± 0.12
GGACAGCAAUAUUACGACUC | -0.16 ± 0.078 | 0.231 ± 0.097
GGACAGCAAUAUUACGACUU | -0.232 ± 0.085 | 1.19 ± 0.1
GGACAGCAAUAUUACGAGGC | -2.17 ± 0.14 | -1.32 ± 0.2
GGACAGCAAUAUUACGAUGC | 0.225 ± 0.075 | 0.446 ± 0.09
GGACAGCAAUAUUACGCCCU | -3.25 ± 0.2 | -0.306 ± 0.14
GGACAGCAAUAUUACGCGGU | -4.03 ± 0.23 | -1.6 ± 0.15
GGACAGCAAUAUUACGCGUG | -1.17 ± 0.065 | -0.234 ± 0.074
GGACAGCAAUAUUACGCUAA | -0.66 ± 0.1 | -0.339 ± 0.12

Sequence | self-splicing fitness (ln) (30 °C) | self-splicing fitness (ln) (37 °C)
GGACAGCAAUAUUACGCUUU | -1.39 ± 0.065 | -0.538 ± 0.087
GGACAGCAAUAUUACGGAGU | -1.61 ± 0.12 | -1.12 ± 0.11
GGACAGCAAUAUUACGGAUG | -3.44 ± 0.16 | -0.131 ± 0.11
GGACAGCAAUAUUACGGUGG | -1.71 ± 0.11 | -1.53 ± 0.14
GGACAGCAAUAUUACGUAAC | -0.0173 ± 0.1 | -0.0671 ± 0.14
GGACAGCAAUAUUACGUACU | -1.22 ± 0.097 | -0.317 ± 0.1
GGACAGCAAUAUUACGUAUA | -0.645 ± 0.1 | -0.388 ± 0.095
GGACAGCAAUAUUACGUCCA | -1.24 ± 0.13 | -0.889 ± 0.16
GGACAGCAAUAUUACGUGAC | -1.07 ± 0.081 | -1.23 ± 0.13
GGACAGCAAUAUUACGUGUG | -1.55 ± 0.05 | -0.79 ± 0.066
GGACAGCAAUAUUACGUUGA | -0.48 ± 0.07 | 0.279 ± 0.098
GGAGAGCAAUAUUACGAAAG | -2.26 ± 0.26 | –
GGAGAGCAAUAUUACGAACU | -1.36 ± 0.31 | -1.92 ± 0.37
GGAGAGCAAUAUUACGAAUC | -3.58 ± 0.49 | -2.4 ± 0.39
GGAGAGCAAUAUUACGAGGA | -3.52 ± 0.31 | -2.44 ± 0.19
GGAGAGCAAUAUUACGAGGG | -1.99 ± 0.38 | –
GGAGAGCAAUAUUACGAUUC | -1.58 ± 0.29 | -0.911 ± 0.26
GGAGAGCAAUAUUACGCAAA | -3.82 ± 0.43 | –
GGAGAGCAAUAUUACGCAUA | -3.12 ± 0.26 | -2.73 ± 0.23
GGAGAGCAAUAUUACGCUUC | – | -1.31 ± 0.43
GGAGAGCAAUAUUACGGAUG | – | -1.45 ± 0.35
GGAGAGCAAUAUUACGGCAG | -3.29 ± 0.38 | –
GGAGAGCAAUAUUACGGCUU | -0.815 ± 0.2 | -2.01 ± 0.3
GGAGAGCAAUAUUACGGGUC | -1.54 ± 0.15 | -1.53 ± 0.2
GGAGAGCAAUAUUACGGUCC | – | -1.17 ± 0.34

Sequence | self-splicing fitness (ln) (30 °C) | self-splicing fitness (ln) (37 °C)
GGAGAGCAAUAUUACGGUGC | -3.03 ± 0.12 | -1.57 ± 0.11
GGAGAGCAAUAUUACGGUUU | -2.6 ± 0.094 | -1.15 ± 0.092
GGAGAGCAAUAUUACGUACA | – | -1.61 ± 0.47
GGAGAGCAAUAUUACGUCGC | -1.99 ± 0.39 | 0.588 ± 0.38
GGAGAGCAAUAUUACGUGGA | – | -3.26 ± 0.32
GGAUAGCAAUAUUACGAGAC | -2.63 ± 0.25 | -2.63 ± 0.48
GGAUAGCAAUAUUACGAUAG | -2.63 ± 0.23 | -2.86 ± 0.47
GGAUAGCAAUAUUACGCAAU | -1.83 ± 0.41 | -0.704 ± 0.23
GGAUAGCAAUAUUACGCGGG | -3.3 ± 0.17 | -0.931 ± 0.11
GGAUAGCAAUAUUACGCUAA | -2.07 ± 0.16 | -1.03 ± 0.22
GGAUAGCAAUAUUACGGAAG | -3.41 ± 0.26 | -2.85 ± 0.24
GGAUAGCAAUAUUACGGAAU | -2.48 ± 0.17 | -2.33 ± 0.24
GGAUAGCAAUAUUACGGCGU | 0.322 ± 0.093 | 0.626 ± 0.1
GGAUAGCAAUAUUACGGGCA | -2.6 ± 0.26 | -0.844 ± 0.11
GGAUAGCAAUAUUACGGUAC | -1.59 ± 0.14 | 0.179 ± 0.13
GGAUAGCAAUAUUACGGUGU | -1.3 ± 0.059 | -1.05 ± 0.083
GGAUAGCAAUAUUACGGUUC | -2.54 ± 0.23 | -2.05 ± 0.28
GGAUAGCAAUAUUACGUAAU | -1.99 ± 0.13 | -0.617 ± 0.14
GGAUAGCAAUAUUACGUACG | -0.84 ± 0.21 | -0.97 ± 0.25
GGAUAGCAAUAUUACGUCGA | -0.726 ± 0.1 | -0.0349 ± 0.098
GGAUAGCAAUAUUACGUGAA | -1.83 ± 0.07 | -1.13 ± 0.081
GGAUAGCAAUAUUACGUGCU | -1.26 ± 0.085 | -1.21 ± 0.12
GGAUAGCAAUAUUACGUUCA | -0.502 ± 0.1 | -0.00255 ± 0.15
